Tested on: MS2 coat protein
Assay: apparent KD of MS2 coat protein; higher = weaker reporter binding
Settings: Eterna round: R107; input ligand: theophylline 20 uM
In short: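 Apparent KD is reported per design as the median of normalised binding-curve fits across its clusters. The RNA switches were made by on-chip transcription from Illumina sequencing clusters. SNAP-549-labelled MS2 coat protein was then added in twofold steps (0.7 or 1.5 nM to 3 µM; 0.8–1.5 h to 10–20 min per step) in 100 mM Tris-HCl pH 7.5, 80 mM KCl, 4 mM MgCl2, without or with constant ligand.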

Sequence	apparent KD of MS2 coat protein
GCGAACGGACCGUUGCCUUCCUGUGUGCGGCGAGGACCGGUACGGCCGCCACUCGACUGCGUACAUGAGGAUCACCCAUGUUAGA [theeternabot_exclusion_MS2_Trp_A_16]	40.2 nM
UAAUAAUUGUGAUUCUCAGGUCCUCGAUAACGAGGACCGGUACGGCCGCCACUCGAACAUGAGGAUCACCCAUGUAUGAGGACCU [M'-T'-T-MS2-T'' - Design 3]	21 nM
CGGCCCUCAGAUGAGGAUCACCCAUCUGAUACCAGCCUGGAAACAGGCCCUUGGCAGCAGAAGGUCAUCAAAGAUGACCAAGCCG [TheoAX 30 #OpenEnded #AlternativeMS2]	19.4 nM
UCGGGCAGAGCGGCCGCCACUGUUUGGCGUGCGGAUGAAGGAACAUGAGGAUCACCCAUGUUGAUUAGGACCGGGCUUGCGGAGA [kklmullin]	27 nM
GGCGCGGUGAUGGUAGCCGGACGCUAGGUACGAGGACCGGUACGGCCGCCACUCGGAGUCCUGGGACAUGAGGAUCACCCAUGUA [Same State Trp A GF18]	118 nM
ACGUCCGGAUUACUCGUGGGCAUGGUCGAUACCAGUAUUUUAAUCUACCCUUGGCAGCGACAUGAGGAUCACCCAUGUGCGAUGA [XTheo A #20]	41.6 nM
CGAUAUAAGACGGCCGCCACUAUUAAGUAUCAAAAUAAACAUGAGGAUCACCCAUGUACAUGGGAUAGGACCGGGUCCAAUAACG [A2]	123 nM
AAGGGAGAAUCAGAUACCAGAGUAAGAUGGCAUGAUAAUUACAUGAGGAUCACCCAUGUACUCCCUUGGCAGCUGACAAUAUAUU [Exclusion Theophylline B GF 18]	13.2 nM
UGUAACAUGAGGAUCACCCAUGUAAGUGAUACCAGAUAAGUAGUAGUCCCUUGGCAGCAUAUUGGGCGAGUGUAUAGUCUAUACG [Same State - Theophylline A (Freestyle 7)]	69.8 nM
GCUAGGUCAUCGGCCGCCACUAACGACGGCUCCAACAUGAGGAUCACCCAUGUGCCACAUGCGCAUAGGACCGGGAUGACCUAGC [SSTB NP+V+V2 #4]	55 nM
UACUUGCGGUCGGCCGCCACUACGAGGCAGACCUUCACAUGAGGAUCACCCAUGUAGUCGGCUAGUAGGACCGGGAUGGCAUAAA [Solasoce]	41.9 nM
AACAUGAGGAUCACCCAUGUCCUCGUGUUCCGAGGACCGGUACGGCCGCCACUCGGUCCUCGCGAGGAUGGUCAAAGACUAUCCA [Omei Trp A SS B v3]	378 nM
AAGCUGGGUGUAAAAUAAAUAAUCACUGAUACCAGACUAUGAGAUGUCCCUUGGCAGCAGAAACAUGAGGAUCACCCAUGUAAUA [JR_Nu_ExcTheophyA_Sub027]	25.5 nM
UGUCAGCGAAAGUUGACAUGUUGAACCGGUCGAGGACCGGUACGGCCGCCACUCGAUCUCUCGUACAUGAGGAUCACCCAUGUCG [SS Tryp A #18]	14 nM
AGUUUAGACACGGCCGCCACUCGUGACAGAUUUCGCAGUGGUCUACAUGAGGAUCACCCAUGUCUGAGGACCGGGUGUUGAGUUU [XTryp B #8]	177 nM

Same assay, conditions: Eterna round: R107; input ligand: theophylline 2 mM

Sequence	apparent KD of MS2 coat protein
ACGUAAUGCAGAAGGAGCGUCUAUGUGUUACAUGAGGAUCACCCAUGUGUUAUGUUAUGUGGACAGGUAGGUCGCUGAAGUACGA [JR_SSArginiB_Sub005]	134 nM
UAUGCACAUGAGGAUCACCCAUGUAUGGAAGGAGCGGUGAAUAAACCAGGUAGGUCGCCAUGGUGAGGGUCAUCUAUGUAAUCGU [Exclusion - Arginine A (Freestyle 5)]	80.3 nM
UGAUGGUGCUGAAGGAGCGUGUAAGAACAAGAACAUGAGGAUCACCCAUGUAUUAAUUUAACGCAGGUAGGUCGCGGUGUUAUUG [11.M]	22.4 nM
CCUGACAUGAGGAUCACCCAUGUGUGAGCACGAGGACCGGUACGGCCGCCACUCGCGUUGCCGGCCGGACUAUCUGGCGAAGUCA [theeternabot_sameState_MS2_Trp_A_10]	41.4 nM
GUUGGUUUGGGAAGGAGCGGGUAUGUUGUCUACUUGAUCCUAACAUGAGGAUCACCCAUGUCCCAGGUAGGUCGCCCAGGCUUUG [12.aD]	103 nM
UACAUGAGGAUCACCCAUGUAUGUAUCGAAGGAGCGCGUGUAAACGCAGGUAGGUCGCGAACAUGAGGAUCACACAUGAGGAUCA [Same State Arginine A]	37.5 nM
UCAUAAGUACCGGUCCUCAGAUCCUCAUGACGAGGACCGGUACGGCCGCCACUCGAAACAUGAGGAUCACCCAUGUAAUAACAUU [Brourdmod23]	26.1 nM
UCUAGGCUCGGAAACGAGCCUAGUACAGAAGGAGCGUGGAUUAACACAGGUAGGUCGCUGACAUGAGGAUCACCCAUGUAUUAUU [SSAA #3]	31 nM
UAUACUAUGAAAGUAGUAUAUACGUGUUGACGAGGACCGGUACGGCCGCCACUCGACAUGAGGAUCACCCAUGUAUAGAAUAAGU [TrypA_F1]	30 nM
UGUAUGGACUGAAGGAGCGGAUGAUAAUCUGAGGAUCACCCAGGUAAUAAGGCGAAAGCCAUCCAGGUAGGUCGCAGUCCAUACU	111 nM
GCGAACGGACCGUUGCCUUCCUGUGUGCGGCGAGGACCGGUACGGCCGCCACUCGACUGCGUACAUGAGGAUCACCCAUGUUAGA [theeternabot_exclusion_MS2_Trp_A_16]	31.8 nM
UAAUAAUUGUGAUUCUCAGGUCCUCGAUAACGAGGACCGGUACGGCCGCCACUCGAACAUGAGGAUCACCCAUGUAUGAGGACCU [M'-T'-T-MS2-T'' - Design 3]	19.6 nM
CGGCCCUCAGAUGAGGAUCACCCAUCUGAUACCAGCCUGGAAACAGGCCCUUGGCAGCAGAAGGUCAUCAAAGAUGACCAAGCCG [TheoAX 30 #OpenEnded #AlternativeMS2]	89.1 nM
UCGGGCAGAGCGGCCGCCACUGUUUGGCGUGCGGAUGAAGGAACAUGAGGAUCACCCAUGUUGAUUAGGACCGGGCUUGCGGAGA [kklmullin]	17.4 nM
GGCGCGGUGAUGGUAGCCGGACGCUAGGUACGAGGACCGGUACGGCCGCCACUCGGAGUCCUGGGACAUGAGGAUCACCCAUGUA [Same State Trp A GF18]	209 nM
ACGUCCGGAUUACUCGUGGGCAUGGUCGAUACCAGUAUUUUAAUCUACCCUUGGCAGCGACAUGAGGAUCACCCAUGUGCGAUGA [XTheo A #20]	41.3 nM
CGAUAUAAGACGGCCGCCACUAUUAAGUAUCAAAAUAAACAUGAGGAUCACCCAUGUACAUGGGAUAGGACCGGGUCCAAUAACG [A2]	208 nM
GCUAGGUCAUCGGCCGCCACUAACGACGGCUCCAACAUGAGGAUCACCCAUGUGCCACAUGCGCAUAGGACCGGGAUGACCUAGC [SSTB NP+V+V2 #4]	45 nM
UACUUGCGGUCGGCCGCCACUACGAGGCAGACCUUCACAUGAGGAUCACCCAUGUAGUCGGCUAGUAGGACCGGGAUGGCAUAAA [Solasoce]	41.8 nM
AACAUGAGGAUCACCCAUGUCCUCGUGUUCCGAGGACCGGUACGGCCGCCACUCGGUCCUCGCGAGGAUGGUCAAAGACUAUCCA [Omei Trp A SS B v3]	953 nM
UGUCAGCGAAAGUUGACAUGUUGAACCGGUCGAGGACCGGUACGGCCGCCACUCGAUCUCUCGUACAUGAGGAUCACCCAUGUCG [SS Tryp A #18]	11.7 nM
AGUUUAGACACGGCCGCCACUCGUGACAGAUUUCGCAGUGGUCUACAUGAGGAUCACCCAUGUCUGAGGACCGGGUGUUGAGUUU [XTryp B #8]	194 nM

Same assay, conditions: Eterna round: R107; input ligand: tryptophan 2.4 mM

Sequence	apparent KD of MS2 coat protein
ACGUAAUGCAGAAGGAGCGUCUAUGUGUUACAUGAGGAUCACCCAUGUGUUAUGUUAUGUGGACAGGUAGGUCGCUGAAGUACGA [JR_SSArginiB_Sub005]	81 nM
UAUGCACAUGAGGAUCACCCAUGUAUGGAAGGAGCGGUGAAUAAACCAGGUAGGUCGCCAUGGUGAGGGUCAUCUAUGUAAUCGU [Exclusion - Arginine A (Freestyle 5)]	59.3 nM
GAUGAUAUUGCAGAUACCAGACACAUGAGGAUCACCCAUGUCGCUGGGUUACUGGAUCGUGUCCCUUGGCAGCUGCGAUAUCAUC [Austria]	294 nM
UGAUGGUGCUGAAGGAGCGUGUAAGAACAAGAACAUGAGGAUCACCCAUGUAUUAAUUUAACGCAGGUAGGUCGCGGUGUUAUUG [11.M]	18.6 nM
GUUGGUUUGGGAAGGAGCGGGUAUGUUGUCUACUUGAUCCUAACAUGAGGAUCACCCAUGUCCCAGGUAGGUCGCCCAGGCUUUG [12.aD]	98.4 nM
GAUCCUCGUACGGAUACCAGCGACUAACAUGAGGAUCACCCAUGUGAUAAAGAAAAUAUUUGCCCUUGGCAGCCGAAUAGAUAGU [#21 Same State - Theophylline B]	74.2 nM
UACAUGAGGAUCACCCAUGUAUGUAUCGAAGGAGCGCGUGUAAACGCAGGUAGGUCGCGAACAUGAGGAUCACACAUGAGGAUCA [Same State Arginine A]	29.3 nM
CUAGGAAACUAGUAAGGGUGGUAUAGAGAUACCAGUACAGAAAUGUACCCUUGGCAGCUCACUGCAACAUGAGGAUCACCCAUGU [Ex Theophylline A 11]	26.1 nM
UCUAGGCUCGGAAACGAGCCUAGUACAGAAGGAGCGUGGAUUAACACAGGUAGGUCGCUGACAUGAGGAUCACCCAUGUAUUAUU [SSAA #3]	27.7 nM
AAAACACAUGAGGAUCACCCAUGUCAUGAUACCAGUCCACAUGAGGACCCUUGGCAGCAUAAAAUGGGUAACAUGAGGAUAACCC [AstrosEXyTheA#4]	23.4 nM
UAUUCUGACACAGAUACCAGUCAAUUCCGUGGCAAGUGCUACAUGAGGAUCACCCAUGUCGACCCUUGGCAGCUGAAGAGAUACA [theeternabot_exclusion_MS2_Theo_B_50]	11.2 nM
UAUACUAUGAAAGUAGUAUAUACGUGUUGACGAGGACCGGUACGGCCGCCACUCGACAUGAGGAUCACCCAUGUAUAGAAUAAGU [TrypA_F1]	15.3 nM
UGUAUGGACUGAAGGAGCGGAUGAUAAUCUGAGGAUCACCCAGGUAAUAAGGCGAAAGCCAUCCAGGUAGGUCGCAGUCCAUACU	103 nM
UAAUAAUUGUGAUUCUCAGGUCCUCGAUAACGAGGACCGGUACGGCCGCCACUCGAACAUGAGGAUCACCCAUGUAUGAGGACCU [M'-T'-T-MS2-T'' - Design 3]	13.8 nM
CGGCCCUCAGAUGAGGAUCACCCAUCUGAUACCAGCCUGGAAACAGGCCCUUGGCAGCAGAAGGUCAUCAAAGAUGACCAAGCCG [TheoAX 30 #OpenEnded #AlternativeMS2]	12 nM
UCGGGCAGAGCGGCCGCCACUGUUUGGCGUGCGGAUGAAGGAACAUGAGGAUCACCCAUGUUGAUUAGGACCGGGCUUGCGGAGA [kklmullin]	16.7 nM
GGCGCGGUGAUGGUAGCCGGACGCUAGGUACGAGGACCGGUACGGCCGCCACUCGGAGUCCUGGGACAUGAGGAUCACCCAUGUA [Same State Trp A GF18]	63.4 nM
ACGUCCGGAUUACUCGUGGGCAUGGUCGAUACCAGUAUUUUAAUCUACCCUUGGCAGCGACAUGAGGAUCACCCAUGUGCGAUGA [XTheo A #20]	21.8 nM
CGAUAUAAGACGGCCGCCACUAUUAAGUAUCAAAAUAAACAUGAGGAUCACCCAUGUACAUGGGAUAGGACCGGGUCCAAUAACG [A2]	70.2 nM
AAGGGAGAAUCAGAUACCAGAGUAAGAUGGCAUGAUAAUUACAUGAGGAUCACCCAUGUACUCCCUUGGCAGCUGACAAUAUAUU [Exclusion Theophylline B GF 18]	10.3 nM
UGUAACAUGAGGAUCACCCAUGUAAGUGAUACCAGAUAAGUAGUAGUCCCUUGGCAGCAUAUUGGGCGAGUGUAUAGUCUAUACG [Same State - Theophylline A (Freestyle 7)]	49.7 nM
GCUAGGUCAUCGGCCGCCACUAACGACGGCUCCAACAUGAGGAUCACCCAUGUGCCACAUGCGCAUAGGACCGGGAUGACCUAGC [SSTB NP+V+V2 #4]	14.6 nM
UACUUGCGGUCGGCCGCCACUACGAGGCAGACCUUCACAUGAGGAUCACCCAUGUAGUCGGCUAGUAGGACCGGGAUGGCAUAAA [Solasoce]	16.3 nM
AAGCUGGGUGUAAAAUAAAUAAUCACUGAUACCAGACUAUGAGAUGUCCCUUGGCAGCAGAAACAUGAGGAUCACCCAUGUAAUA [JR_Nu_ExcTheophyA_Sub027]	27.1 nM

Reference: the supplement of paper PMC9170038
